Our source for the He/Con_2b and He/Con_2aH values is patent US20180155451A1 (published 2018).

One experiment deals with T1, FcγRIIb (human, UniProt P31994 43-217).
T1 construct: extracellular domain; also called 2b
T1 sequence (looked up): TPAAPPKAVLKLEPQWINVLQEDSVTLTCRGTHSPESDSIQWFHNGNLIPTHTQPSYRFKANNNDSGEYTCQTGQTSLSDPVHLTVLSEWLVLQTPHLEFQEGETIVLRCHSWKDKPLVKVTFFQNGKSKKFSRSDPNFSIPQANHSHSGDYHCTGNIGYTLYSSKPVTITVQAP
As to the kind of experiment: SPR (Biacore), relative binding vs GpH7-A5/GpH7-B3/GpL16-k0. As to the method: (§1) The heterodimerized antibodies He Abs in which one of the H chains was introduced with an alteration were assayed for their binding activities to each activating FcγR and inhibitory FcγR according to the method described in Example 4. […] The activating FcγRs in FIGS. 26, 27, 28, and 29 are FcγRIa, FcγRIIa (R), FcγRIIa (H), and FcγRIIIa, respectively.
(§2) Analysis of interaction between objective antibody and the FcγR was carried out using Biacore T100 (GE Healthcare). HBS-EP+ (GE Healthcare) was used as the running buffer, and the measurement temperature was set to 25° C. Chips produced by immobilizing the antigen peptide by the amine coupling method to a Series S Sencor Chip CM5 (GE Healthcare), or alternatively, chips produced by allowing preliminarily biotinylated antigen peptides to interact with and immobilize onto a Series S Sensor Chip SA (certified) (GE Healthcare) were used. Antibodies of interest were captured onto an antigen peptide-immobilized chip, and allowed to interact to each FcγR diluted with running buffer. To regenerate and repeatedly use the chip, the antibodies captured on the chip were washed off by reacting 10 mM glycine-HCl, pH 1.5.
Background: SPR reads the build-up and loss of mass on a sensor chip optically.

The next experiment deals with T2, FcγRIIa H (human, UniProt P12318 34-217).
T2 construct: extracellular domain; also called FcγRIIa type H; 2aH
T2 sequence (looked up): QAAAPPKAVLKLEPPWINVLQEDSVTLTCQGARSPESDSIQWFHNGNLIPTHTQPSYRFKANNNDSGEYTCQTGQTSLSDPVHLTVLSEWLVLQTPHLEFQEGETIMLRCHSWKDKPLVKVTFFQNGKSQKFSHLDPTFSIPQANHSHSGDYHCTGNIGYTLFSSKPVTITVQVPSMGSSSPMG
Described as above. As to the method: as §1, §2

B1: GpH7-A5/GpH7-B3 variant K326_16H/GpL16-k0 (antibody, human IgG1, kappa)
heavy 1: not shown
heavy 2: not shown
light: DIVMTQSPLSLPVTPGEPASISCQASESLVHSNRNTYLHWYLQKPGQSPQLLIYKVSNRFSGVPDRFSGSGSGTDFTLKISRVEAEDVGVYYCSQNTHVPPTFGQGTKVEIERTVAAPSVFIFPPSDEQLKSGTASVVCLLNNFYPREAKVQWKVDNALQSGNSQESVTEQDSKDSTYSLSSTLTLSKADYEKHKVYACEVTHQGLSSPVTKSFNRGEC
notes: heterodimerized IgG1, mutation in one H chain only; also called He Ab
Consider B1, for which the He/Con_2b with FcγRIIb is 119 % of control He Ab (=100). Also, in the experiment with FcγRIIa H, the He/Con_2aH was 97.9 % of control He Ab (=100).

B2: GpH7-A5/GpH7-B3 variant L328_10E/GpL16-k0 (antibody, human IgG1, kappa)
heavy 1: not shown
heavy 2: not shown
light: DIVMTQSPLSLPVTPGEPASISCQASESLVHSNRNTYLHWYLQKPGQSPQLLIYKVSNRFSGVPDRFSGSGSGTDFTLKISRVEAEDVGVYYCSQNTHVPPTFGQGTKVEIERTVAAPSVFIFPPSDEQLKSGTASVVCLLNNFYPREAKVQWKVDNALQSGNSQESVTEQDSKDSTYSLSSTLTLSKADYEKHKVYACEVTHQGLSSPVTKSFNRGEC
notes: as for B1
With B2, the He/Con_2b with FcγRIIb was 172 % of control He Ab (=100). The He/Con_2aH with FcγRIIa H is 55.5 % of control He Ab (=100).

B3: GpH7-A5/GpH7-B3 variant L328_15Y/GpL16-k0 (antibody, human IgG1, kappa)
heavy 1: not shown
heavy 2: not shown
light: DIVMTQSPLSLPVTPGEPASISCQASESLVHSNRNTYLHWYLQKPGQSPQLLIYKVSNRFSGVPDRFSGSGSGTDFTLKISRVEAEDVGVYYCSQNTHVPPTFGQGTKVEIERTVAAPSVFIFPPSDEQLKSGTASVVCLLNNFYPREAKVQWKVDNALQSGNSQESVTEQDSKDSTYSLSSTLTLSKADYEKHKVYACEVTHQGLSSPVTKSFNRGEC
notes: as for B1
For B3, the He/Con_2b in the experiment with FcγRIIb was 193 % of control He Ab (=100). Besides, the He/Con_2aH with FcγRIIa H is 90 % of control He Ab (=100).

B4: GpH7-A5/GpH7-B3 variant N325_04F/GpL16-k0 (antibody, human IgG1, kappa)
heavy 1: not shown
heavy 2: not shown
light: DIVMTQSPLSLPVTPGEPASISCQASESLVHSNRNTYLHWYLQKPGQSPQLLIYKVSNRFSGVPDRFSGSGSGTDFTLKISRVEAEDVGVYYCSQNTHVPPTFGQGTKVEIERTVAAPSVFIFPPSDEQLKSGTASVVCLLNNFYPREAKVQWKVDNALQSGNSQESVTEQDSKDSTYSLSSTLTLSKADYEKHKVYACEVTHQGLSSPVTKSFNRGEC
notes: as for B1
Consider B4, for which the He/Con_2b in the experiment with FcγRIIb is 143 % of control He Ab (=100). Moreover, the He/Con_2aH in the experiment with FcγRIIa H is 33.4 % of control He Ab (=100).

B5: GpH7-A5/GpH7-B3 variant N325_01G/GpL16-k0 (antibody, human IgG1, kappa)
heavy 1: not shown
heavy 2: not shown
light: DIVMTQSPLSLPVTPGEPASISCQASESLVHSNRNTYLHWYLQKPGQSPQLLIYKVSNRFSGVPDRFSGSGSGTDFTLKISRVEAEDVGVYYCSQNTHVPPTFGQGTKVEIERTVAAPSVFIFPPSDEQLKSGTASVVCLLNNFYPREAKVQWKVDNALQSGNSQESVTEQDSKDSTYSLSSTLTLSKADYEKHKVYACEVTHQGLSSPVTKSFNRGEC
notes: as for B1
Take B5: in the experiment with FcγRIIb, the He/Con_2b was 101 % of control He Ab (=100). Also, in the experiment with FcγRIIa H, the He/Con_2aH was 56.8 % of control He Ab (=100).

B6: GpH7-A5/GpH7-B3 variant K334_05P/GpL16-k0 (antibody, human IgG1, kappa)
heavy 1: not shown
heavy 2: not shown
light: DIVMTQSPLSLPVTPGEPASISCQASESLVHSNRNTYLHWYLQKPGQSPQLLIYKVSNRFSGVPDRFSGSGSGTDFTLKISRVEAEDVGVYYCSQNTHVPPTFGQGTKVEIERTVAAPSVFIFPPSDEQLKSGTASVVCLLNNFYPREAKVQWKVDNALQSGNSQESVTEQDSKDSTYSLSSTLTLSKADYEKHKVYACEVTHQGLSSPVTKSFNRGEC
notes: as for B1
Turning to B6, the He/Con_2b with FcγRIIb was 105 % of control He Ab (=100). Also, in the experiment with FcγRIIa H, the He/Con_2aH was 97.6 % of control He Ab (=100).

B7: GpH7-A5/GpH7-B3 variant L328_03V/GpL16-k0 (antibody, human IgG1, kappa)
heavy 1: not shown
heavy 2: not shown
light: DIVMTQSPLSLPVTPGEPASISCQASESLVHSNRNTYLHWYLQKPGQSPQLLIYKVSNRFSGVPDRFSGSGSGTDFTLKISRVEAEDVGVYYCSQNTHVPPTFGQGTKVEIERTVAAPSVFIFPPSDEQLKSGTASVVCLLNNFYPREAKVQWKVDNALQSGNSQESVTEQDSKDSTYSLSSTLTLSKADYEKHKVYACEVTHQGLSSPVTKSFNRGEC
notes: as for B1
Turning to B7, the He/Con_2b with FcγRIIb was 126 % of control He Ab (=100). Moreover, the He/Con_2aH in the experiment with FcγRIIa H is 97.8 % of control He Ab (=100).

B8: GpH7-A5/GpH7-B3 variant K326_20W/GpL16-k0 (antibody, human IgG1, kappa)
heavy 1: not shown
heavy 2: not shown
light: DIVMTQSPLSLPVTPGEPASISCQASESLVHSNRNTYLHWYLQKPGQSPQLLIYKVSNRFSGVPDRFSGSGSGTDFTLKISRVEAEDVGVYYCSQNTHVPPTFGQGTKVEIERTVAAPSVFIFPPSDEQLKSGTASVVCLLNNFYPREAKVQWKVDNALQSGNSQESVTEQDSKDSTYSLSSTLTLSKADYEKHKVYACEVTHQGLSSPVTKSFNRGEC
notes: as for B1
As to B8, the He/Con_2b in the experiment with FcγRIIb is 148 % of control He Ab (=100). Further, in the experiment with FcγRIIa H, the He/Con_2aH was 83.3 % of control He Ab (=100).
